We go through two molecules from patent US20210221879A1.

Test [1] has as its target BSA cross-linked with A-peak (A-peak-BSA) (bovine) (UniProt P02769). The test can be described thus: SPR, Biacore T200; A-peak-BSA amine-coupled to a CM5 chip (72 RU), PB-1 at 0.1953 to 50 nM, 1:1 binding model. (SPR reads the build-up and loss of mass on a sensor chip optically.)
For test [2] the target is unchanged. The experiment in a line: cross-competition ELISA: unlabeled antibody varied (0.049 to 50 µg/mL), HRP-labeled SJ-5 as competitor on immobilised A-peak-BSA, absorbance 450-650 nm. For orientation: An ELISA detects its analyte on a solid surface through an enzyme-linked reagent.
The target of test [3] is Bovine serum albumin containing AGEs derived from glyceraldehyde (Glycer-AGEs-BSA) (bovine) (UniProt P02769). The test can be described thus: SPR, Biacore T200; Glycer-AGEs-BSA amine-coupled to a CM5 chip, antibody at 0 to 400 nM.
The target in test [4] is BSA modified with the novel structure derived from Glycer-AGEs (GAL13-BSA) (bovine) (UniProt P02769). The test can be described thus: direct ELISA: POD-labeled antibody on immobilised GAL13-BSA (1 µg/mL), absorbance at 490 nm.
Test [5] shares this target. The test can be described thus: SPR, Biacore T200; GAL13-BSA amine-coupled to a CM5 chip.

B1: novel monoclonal antibody PB-1 (antibody, V domains shown)
VH: EVRLQQSGPELVKPGTSVKISCKASGYSFTGYYMHWVKQSPVKSLEWIGRIIPYNGATSYNQNFKDKASLTVDKSSRTAYMDLHSLTSEDSAVYYCARSRYYGRAPYYFDYWGQGTTLTVSS
VL: DVVVTQTPLSLPVSLGDQASISCRSSQSIVHSNGNTYLEWYLQKPGQSPKLLIYKVSNRFSGVPDRISGSGSGTDFTLKISRVEAGDLGVYSCFQGSHVPFTFGSGTKLEIK
By Kd is commonly meant a measure of binding affinity in units of concentration. A lower Kd goes with tighter binding. B1 came in with a Kd in test [1] of 4.15 nM. For the same molecule, the IC50 (read off the curve) in test [2] amounted to 2 µg/mL.

B2: novel monoclonal antibody SJ-5 (antibody, V domains shown)
VH: EVMLVESGGRLVKPGGSLKLSCAASGFTFSSYGMSWVRQTPEKRLEWVATISGGGSYTYYPDSVKGRFTISRDNVKNNLYLQMSSLRSEDTALYYCARRGAYGDYGWFAYWGQGTLVTVSA
VL: DIVLTQSPATLSVTPGDSVSLSCRASQSINNNLHWYQQKSHESPRLLIKCASQSISGIPSRFSGSGSGTDFTLSINSVETEDFGMYFCQQSNSWPLTFGAGTKLELK
Usually EC50 (read off the curve) stands for the concentration giving half of the maximal effect. Read a low EC50 (read off the curve) as higher potency in that assay. B2: the values for the Kd in test [3] and in test [5] were 57.4 nM and 87.5 nM, respectively. This molecule also had an EC50 (read off the curve) in test [4] of 0.3 µg/mL.
